Experiments:
SARS-COV-2 RBD-MMH [1] = biological target: SARS-COV-2 RBD-MMH (SARS-CoV-2); experiment: SPR 37C
SARS-COV-2 RBD-MMH [2] = biological target: SARS-COV-2 RBD-MMH (SARS-CoV-2); experiment: SPR 37C, run with dissociation at pH 5.0
SARS-COV-2 RBD-MMH [3] = biological target: SARS-COV-2 RBD-MMH (SARS-CoV-2); experiment: SPR 37C, run with dissociation at pH 7.4
[4] = biological target: human FcγR3a 176Val allotype receptor (human, UniProt P08637 17-254); experiment: cell-based or functional assay

Binder | t½ Ratio of pH 7.4 to pH 5.0 (SARS-COV-2 RBD-MMH [1]) | RBD.mmh Bound at pH 7.4 (RU) (SARS-COV-2 RBD-MMH [2]) | koff (SARS-COV-2 RBD-MMH [2]) [s⁻¹] | t½ (SARS-COV-2 RBD-MMH [2]) [min] | RBD.mmh Bound at pH 7.4 (RU) (SARS-COV-2 RBD-MMH [3]) | koff (SARS-COV-2 RBD-MMH [3]) [s⁻¹] | EC50 (M), Jurkat/CD20/spike [4] [M] | Fold induction, Jurkat CD20 [4] [fold] | Fold induction, Jurkat/CD20/spike [4] [fold]
mAb14235 (antibody) heavy: not shown light: QSALTQPASVSGSPGQSITISCTATSSDVGTYNYVSWFQHHPGKAPKLMIYEVTNRPSGVSNRFSGSKSGNTASLTISGLQAEDEADYYCSSYTTTSIVFGGGTKLTVLGQPKAAPSVTLFPPSSEELQANKATLVCLISDFYPGAVTVAWKADSSPVKAGVETTTPSKQSNNKYAASSYLSLTPEQWKSHRSYSCQVTHEGSTVEKTVAPTECS | 0.8 | 80.8 | 0.00119 | 9.7 | 71.2 | 0.00148 | 1.43e-10 | 1 | 10.8
mAb14247 (antibody) heavy: not shown light: QSALTQPASVSGSPGQSITISCTATSSDVGNYNYVSWYQQHPGKAPKLMIYEVSNRPSGVSNRFSGSKSGNTASLTISGLQAEDEADYYCSSYTSSSTPLVFGGGTKLTVLGQPKAAPSVTLFPPSSEELQANKATLVCLISDFYPGAVTVAWKADSSPVKAGVETTTPSKQSNNKYAASSYLSLTPEQWKSHRSYSCQVTHEGSTVEKTVAPTECS | 1.2 | 51.9 | 0.00191 | 6.1 | 40.8 | 0.00158 | 1.79e-10 | 1 | 11.3
mAb14280 (antibody) heavy: not shown light: QSALTQPPSASGSPGQSVTISCTGTSSDVGGYNFVSWYQQHPGKAPKLMIYEVSKRPSGVPDRFSGSKSGNTASLTVSGLQAEDEADYYCSSYAGSNNFVFGTGTKVTVLGQPKAAPSVTLFPPSSEELQANKATLVCLISDFYPGAVTVAWKADSSPVKAGVETTTPSKQSNNKYAASSYLSLTPEQWKSHRSYSCQVTHEGSTVEKTVAPTECS | 0.5 | 61.7 | 0.0103 | 1.1 | 72.4 | 0.024 | 2.67e-10 | 1.1 | 13.5
mAb14234 (antibody) heavy: not shown light: QSVLTQPPSVSGAPGQRVTISCTGSSSNIGIGYDVHWYQQLPGTVPKLLIYGNTNRPSGVPDRFSGSKSGTSASLAITGLQAEDEADYYCQSYDSSLSSYVFGTGTKVTVLGQPKAAPSVTLFPPSSEELQANKATLVCLISDFYPGAVTVAWKADSSPVKAGVETTTPSKQSNNKYAASSYLSLTPEQWKSHRSYSCQVTHEGSTVEKTVAPTECS | 0.7 | 40.4 | 0.00166 | 7 | 37.9 | 0.00221 | 2.69e-10 | 1.1 | 12.6
mAb14281 (antibody) heavy: not shown light: SSELTQDPAVSVALGQTVRITCQGDSLRSYYASWYQQKPGQAPVLVIYDKNNRPSGIPDRFSGSSSGNTASLTITGAQAEDEADYYCNSRDSSRNHLVVFGGGTKLTVLGQPKAAPSVTLFPPSSEELQANKATLVCLISDFYPGAVTVAWKADSSPVKAGVETTTPSKQSNNKYAASSYLSLTPEQWKSHRSYSCQVTHEGSTVEKTVAPTECS | 1.8 | 51.7 | 0.0117 | 1 | 83.5 | 0.00659 | 1.65e-10 | 1.1 | 10.3

— patent publication US20260069689A1 (Regeneron, published 2026)
